Columns and labels:
[1] = molecular target: Mut18 (Influenza A virus A/Brisbane/02/2018 (H1N1)); test: BLI (Octet) after 7D37C and trypsin; HA on Ni-NTA tips
[2] = molecular target: Mut10 (Influenza A virus A/Brisbane/02/2018 (H1N1)); test: as above
[3] = molecular target: Mut27 (Influenza A virus A/Brisbane/02/2018 (H1N1)); test: as above
[4] = molecular target: Mut17 (Influenza A virus A/Brisbane/02/2018 (H1N1)); test: as above
[5] = molecular target: Mut24 (Influenza A virus A/Brisbane/02/2018 (H1N1)); test: as above
[6] = molecular target: Mut23 (Influenza A virus A/Brisbane/02/2018 (H1N1)); test: as above
[7] = molecular target: Mut24 (Influenza A virus A/Brisbane/02/2018 (H1N1)); test: BLI (Octet) after 7D37C and trypsin; footnote to the marked cell
[8] = molecular target: Mut18 (Influenza A virus A/Brisbane/02/2018 (H1N1)); test: BLI (Octet), HA-foldon-His on Ni-NTA tips, IgG in solution
[9] = molecular target: Mut10 (Influenza A virus A/Brisbane/02/2018 (H1N1)); test: as above
[10] = molecular target: Mut27 (Influenza A virus A/Brisbane/02/2018 (H1N1)); test: as above
[11] = molecular target: Mut17 (Influenza A virus A/Brisbane/02/2018 (H1N1)); test: as above
[12] = molecular target: Mut24 (Influenza A virus A/Brisbane/02/2018 (H1N1)); test: as above
[13] = molecular target: Mut23 (Influenza A virus A/Brisbane/02/2018 (H1N1)); test: as above

Row | Substance | Octet response (nm) [1] [nm] | Octet response (nm) [2] [nm] | Octet response (nm) [3] [nm] | Octet response (nm) [4] [nm] | Octet response (nm) [5] [nm] | Octet response (nm) [6] [nm] | fold reduction of affinity (KD) against control [7] [fold] | Octet response (nm) [8] [nm] | Octet response (nm) [9] [nm] | Octet response (nm) [10] [nm] | Octet response (nm) [11] [nm] | Octet response (nm) [12] [nm] | Octet response (nm) [13] [nm]
1 | CR9114 monoclonal antibody (IgG) | 0.464 | 0.729 | 0.314 | 0.754 | 0.0617 | 0.808 | 100 | 0.731 | 0.805 | 0.337 | 0.814 | 0.872 | 0.901
2 | FI6v3 monoclonal antibody (IgG) | 0.484 | 0.737 | 0.313 | 0.748 | 0.406 | 0.745 | – | 0.811 | 0.968 | 0.398 | 0.878 | 0.93 | 0.984

Reference: US20260207732A1
